In article PMC7060200, “Selective Binding of HSC70 and its Co-Chaperones to Structural Hotspots on CFTR” (Scientific Reports, 2020):

Target: T1, HSC70 (Homo sapiens, UniProt P11142)
T1 construct: made in house
Experiment: ELISA binding of HSC70 to immobilized CFTR NBD1 and competition by soluble peptides
Conditions: immobilized NBD1 incubated at 30 °C, direct comparison with immobilized 1097-L; n = 3, p < 0.01
Method: HSC70, DJA1 and DJA2 were purified as His-tagged proteins, as described. HSC70 was also amplified by PCR with an N-terminal FLAG tag, inserted into pPROEXHTa (Invitrogen) and purified as described. HSC70 was stored in 100 mM KOAc, 20 mM HEPES-KOH pH 7.5, 5 mM MgOAC2 (buffer G), DJA1 and DJA2 in 500 mM NaCl, 20 mM HEPES-KOH pH 7.5, 5 mM MgOAC2 (buffer H). Avi-tagged CFTR NBD1 was purified as described.
For NBD1 binding, 100 nM of strep-tagged NBD1 in 100 µl of 150 mM NaCl, 50 mM Na2HPO4 pH 7.5, 1 mM ATP, and 40 µM DTT (buffer N), was bound to streptavidin plates for 1 hour at 4 °C with agitation. Plates were washed with PBST and incubated in buffer N at 30 °C in a water bath for 5 min. Then, plates were blocked in PBST containing 0.5% BSA, followed by the addition of HSC70 binding reactions, and detection as above.

T1 sequence (P11142 whole entry): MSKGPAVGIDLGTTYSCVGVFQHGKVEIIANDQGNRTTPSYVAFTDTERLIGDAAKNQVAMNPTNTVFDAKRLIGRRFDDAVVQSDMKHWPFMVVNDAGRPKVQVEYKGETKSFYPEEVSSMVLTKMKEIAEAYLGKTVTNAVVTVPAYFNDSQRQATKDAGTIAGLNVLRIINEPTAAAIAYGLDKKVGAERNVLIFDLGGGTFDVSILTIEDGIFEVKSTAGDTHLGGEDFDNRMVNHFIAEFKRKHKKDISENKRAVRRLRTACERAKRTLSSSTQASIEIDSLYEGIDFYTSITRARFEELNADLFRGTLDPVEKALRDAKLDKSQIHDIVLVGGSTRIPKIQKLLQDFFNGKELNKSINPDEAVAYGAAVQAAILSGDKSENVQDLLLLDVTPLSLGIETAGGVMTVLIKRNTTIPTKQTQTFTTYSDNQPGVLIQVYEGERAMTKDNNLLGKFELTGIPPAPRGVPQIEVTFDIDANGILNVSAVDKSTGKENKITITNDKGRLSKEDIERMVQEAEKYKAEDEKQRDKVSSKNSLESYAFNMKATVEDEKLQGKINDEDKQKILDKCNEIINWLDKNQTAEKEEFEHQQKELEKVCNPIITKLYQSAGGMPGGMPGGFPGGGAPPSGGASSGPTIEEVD

HSC70 binding to NBD1 relative to that observed for 1097-L: 73 ± 3%
B1: NBD1: Avi-tagged CFTR NBD1, purified and immobilized on streptavidin plates (protein)
chain: TTEVVMENVTAFWEEGFGELFEKAKQNNNNRKTSNGDDSLFFSNFSLLGTPVLKDINFKIERGQLLAVAGSTGAGKTSLLMVIMGELEPSEGKIKHSGRISFCSQFSWIMPGTIKENIIFGVSYDEYRYRSVIKACQLEEDISKFAEKDNIVLGEGGITLSGGQRARISLARAVYKDADLYLLDSPFGYLDVLTEKEIFESCVCKLMANKTRILVTSKMEHLKKADKILILHEGSSYFYGTFSELQNLQPDFSSKLMGCDSFDQFSAERRNSILTETLHRFSLEGDAPVS
modifications: left off: Avi-tag, end not stated, kept
notes: Avi-tagged CFTR NBD1, purified and immobilized on streptavidin plates
